The source of these data is publication PMC3337772.

Substrate in this series: NCCc1ccc(O)c(O)c1
Kind of series: [3H]DA uptake kinetics. The class given is cell-based, Rattus norvegicus.

B1: dopamine transporter (DAT; rDAT) (Rattus norvegicus) (protein)
chain: MSKSKCSVGPMSSVVAPAKESNAVGPREVELILVKEQNGVQLTNSTLINPPQTPVEAQERETWSKKIDFLLSVIGFAVDLANVWRFPYLCYKNGGGAFLVPYLLFMVIAGMPLFYMELALGQFNREGAAGVWKICPVLKGVGFTVILISFYVGFFYNVIIAWALHYFFSSFTMDLPWIHCNNTWNSPNCSDAHASNSSDGLGLNDTFGTTPAAEYFERGVLHLHQSRGIDDLGPPRWQLTACLVLVIVLLYFSLWKGVKTSGKVVWITATMPYVVLTALLLRGVTLPGAMDGIRAYLSVDFYRLCEASVWIDAATQVCFSLGVGFGVLIAFSSYNKFTNNCYRDAIITTSINSLTSFSSGFVVFSFLGYMAQKHNVPIRDVATDGPGLIFIIYPEAIATLPLSSAWAAVFFLMLLTLGIDSAMGGMESVITGLVDEFQLLHRHRELFTLGIVLATFLLSLFCVTNGGIYVFTLLDHFAAGTSILFGVLIEAIGVAWFYGVQQFSDDIKQMTGQRPNLYWRLCWKLVSPCFLLYVVVVSIVTFRPPHYGAYIFPDWANALGWIIATSSMAMVPIYATYKFCSLPGSFREKLAYAITPEKDHQLVDRGEVRQFTLRHWLLL
For the protein B1, the Michaelis-Menten constant (Km) was 1.50 ± 0.10 µM.
